Measured values taken from PMC12265162, “A single residue change only differing by an atomic group can drive imprinting to influenza” (Research Square, 2025).

Columns and labels:
Conditions in all cases: both partners purified
[1] = target: T1, H1N1 A/Solomon Islands/3/2006 HA protein (Influenza A virus A/Solomon …, strain); assay: cryo-EM structure
T1 construct: source: purified

[2] = target: A/USSR/90/1977 H1 hemagglutinin, recombinant (Influenza A virus A/USSR/90/1977 (H1N1), UniProt P03453, strain, biotin on the AviTag); assay: ELISA
[3] = target: A/Brisbane/59/2007 H1 hemagglutinin, recombinant (Influenza A virus A/Brisbane/59/2007 …, UniProt D5F1Q8, strain, biotin on the AviTag); assay: ELISA
[4] = target: A/New Caledonia/20/1999 (NC99) H1 hemagglutinin, recombinant (Influenza A virus A/New …, UniProt Q6WG00, strain, biotin on the AviTag); assay: ELISA

Row | Binder | binding result [1] | binding result [2] | binding result [3] | binding result [4]
1 | NI04359_d30_245 Fab (Fab, V domains shown, also called mAb NI04359_d30_245; source: Expi293F, co-transfected, Fab purified from supernatant (Ni-NTA agarose)) VH: EVQLVESGGGLFKPGGSLRLSCAASGFTFRNAWMSWVRQAPGKGLEWVGRIKSKADGGTTDYAASVKGRFTISRDDSKNTLYLHMNSLKTEDTAVYYCTTPPEIAVVAAAMRDYYYGLDVWGPGTTVTVSS VL: SYELTQPVSVSVALGQTARITCGGNNIGSKSLHWYQQKPGQAPVLVIYRDNNRPSGIPERFSGSNSGNTATLTISRAQAGDEADYYCQVWDSSTYVVFGGGTRLTVL | binds | – | – | –
2 | NI06063_d30_103 mAb (human IgG1) (antibody, V domains shown, IgG1; also called mAb d30_103) VH: QVHLVESGGGVVQPGRSLRLSCAASGFTFSNYGMHWVRQAPGKGLEWVAFISYDGSNEYYADSVKGRFTISRDYSKYTLYLQMNSLRAEDTAVYYCAKDGQWLVRGAFDFWGQGTMVTVSS VL: QSALTQPASVSGSPGQSITISCSGTGSDVGSSHLVSWYQHHPGKAPKLMIFEVSKRPLGVSNRFSGSKSGNTASLTISGLQTEDEADYYCCSYAGGRGVFGGGTKLTVL | – | no binding | no binding | no binding
3 | NI01056_d30_604 Fab (Fab, V domains shown, also called mAb NI01056_d30_604; source: Expi293F, co-transfected, Fab purified from supernatant (Ni-NTA agarose)) VH: QVQLQESGPGLVKPSETLSLTCTVSGGSISNYYWTWIRQPPGKGLEWIGYMYDSGNTKYNSSLRSRLTMSLDTSKNQFSLKMRSVTAADTAVYYCARGGGVRNLLGLRFVSDYMDVWGKGTTVTVSS VL: DIQMTQSPSTLSASVGDRVTITCRASQSISSWLAWYQQKPGKAPHLLIYQASSLETGVPSRFSGSGSGTEFTLTISSLQPDDFATYYCQQYNTYSSTFGQGTQLQIK | binds | – | – | –
